What was measured:
rat megalin = target: T1, rat megalin (rat, UniProt P98158 26-4660); experiment: SPR; rat megalin or cubilin immobilised; human cysC flowed at 20-500 nM (7 concentrations); CaHBS: 10 mM HEPES, 150 mM NaCl, 1.5 mM CaCl2, 1 mM EGTA, pH 7.4; Biacore 3000; Langmuir 1:1 model, global fit; conditions: both partners purified
T1 construct: megalin, rat, purified and immobilised on the SPR chip; probably the native receptor purified from rat kidney (surmised)

rat cubilin = target: T2, rat cubilin (rat, UniProt O70244 33-3623); experiment: as above; conditions: both partners purified
T2 construct: cubilin, rat, purified and immobilised on the SPR chip; probably the native receptor purified from rat kidney (surmised)
T2 sequence (O70244 33-3623): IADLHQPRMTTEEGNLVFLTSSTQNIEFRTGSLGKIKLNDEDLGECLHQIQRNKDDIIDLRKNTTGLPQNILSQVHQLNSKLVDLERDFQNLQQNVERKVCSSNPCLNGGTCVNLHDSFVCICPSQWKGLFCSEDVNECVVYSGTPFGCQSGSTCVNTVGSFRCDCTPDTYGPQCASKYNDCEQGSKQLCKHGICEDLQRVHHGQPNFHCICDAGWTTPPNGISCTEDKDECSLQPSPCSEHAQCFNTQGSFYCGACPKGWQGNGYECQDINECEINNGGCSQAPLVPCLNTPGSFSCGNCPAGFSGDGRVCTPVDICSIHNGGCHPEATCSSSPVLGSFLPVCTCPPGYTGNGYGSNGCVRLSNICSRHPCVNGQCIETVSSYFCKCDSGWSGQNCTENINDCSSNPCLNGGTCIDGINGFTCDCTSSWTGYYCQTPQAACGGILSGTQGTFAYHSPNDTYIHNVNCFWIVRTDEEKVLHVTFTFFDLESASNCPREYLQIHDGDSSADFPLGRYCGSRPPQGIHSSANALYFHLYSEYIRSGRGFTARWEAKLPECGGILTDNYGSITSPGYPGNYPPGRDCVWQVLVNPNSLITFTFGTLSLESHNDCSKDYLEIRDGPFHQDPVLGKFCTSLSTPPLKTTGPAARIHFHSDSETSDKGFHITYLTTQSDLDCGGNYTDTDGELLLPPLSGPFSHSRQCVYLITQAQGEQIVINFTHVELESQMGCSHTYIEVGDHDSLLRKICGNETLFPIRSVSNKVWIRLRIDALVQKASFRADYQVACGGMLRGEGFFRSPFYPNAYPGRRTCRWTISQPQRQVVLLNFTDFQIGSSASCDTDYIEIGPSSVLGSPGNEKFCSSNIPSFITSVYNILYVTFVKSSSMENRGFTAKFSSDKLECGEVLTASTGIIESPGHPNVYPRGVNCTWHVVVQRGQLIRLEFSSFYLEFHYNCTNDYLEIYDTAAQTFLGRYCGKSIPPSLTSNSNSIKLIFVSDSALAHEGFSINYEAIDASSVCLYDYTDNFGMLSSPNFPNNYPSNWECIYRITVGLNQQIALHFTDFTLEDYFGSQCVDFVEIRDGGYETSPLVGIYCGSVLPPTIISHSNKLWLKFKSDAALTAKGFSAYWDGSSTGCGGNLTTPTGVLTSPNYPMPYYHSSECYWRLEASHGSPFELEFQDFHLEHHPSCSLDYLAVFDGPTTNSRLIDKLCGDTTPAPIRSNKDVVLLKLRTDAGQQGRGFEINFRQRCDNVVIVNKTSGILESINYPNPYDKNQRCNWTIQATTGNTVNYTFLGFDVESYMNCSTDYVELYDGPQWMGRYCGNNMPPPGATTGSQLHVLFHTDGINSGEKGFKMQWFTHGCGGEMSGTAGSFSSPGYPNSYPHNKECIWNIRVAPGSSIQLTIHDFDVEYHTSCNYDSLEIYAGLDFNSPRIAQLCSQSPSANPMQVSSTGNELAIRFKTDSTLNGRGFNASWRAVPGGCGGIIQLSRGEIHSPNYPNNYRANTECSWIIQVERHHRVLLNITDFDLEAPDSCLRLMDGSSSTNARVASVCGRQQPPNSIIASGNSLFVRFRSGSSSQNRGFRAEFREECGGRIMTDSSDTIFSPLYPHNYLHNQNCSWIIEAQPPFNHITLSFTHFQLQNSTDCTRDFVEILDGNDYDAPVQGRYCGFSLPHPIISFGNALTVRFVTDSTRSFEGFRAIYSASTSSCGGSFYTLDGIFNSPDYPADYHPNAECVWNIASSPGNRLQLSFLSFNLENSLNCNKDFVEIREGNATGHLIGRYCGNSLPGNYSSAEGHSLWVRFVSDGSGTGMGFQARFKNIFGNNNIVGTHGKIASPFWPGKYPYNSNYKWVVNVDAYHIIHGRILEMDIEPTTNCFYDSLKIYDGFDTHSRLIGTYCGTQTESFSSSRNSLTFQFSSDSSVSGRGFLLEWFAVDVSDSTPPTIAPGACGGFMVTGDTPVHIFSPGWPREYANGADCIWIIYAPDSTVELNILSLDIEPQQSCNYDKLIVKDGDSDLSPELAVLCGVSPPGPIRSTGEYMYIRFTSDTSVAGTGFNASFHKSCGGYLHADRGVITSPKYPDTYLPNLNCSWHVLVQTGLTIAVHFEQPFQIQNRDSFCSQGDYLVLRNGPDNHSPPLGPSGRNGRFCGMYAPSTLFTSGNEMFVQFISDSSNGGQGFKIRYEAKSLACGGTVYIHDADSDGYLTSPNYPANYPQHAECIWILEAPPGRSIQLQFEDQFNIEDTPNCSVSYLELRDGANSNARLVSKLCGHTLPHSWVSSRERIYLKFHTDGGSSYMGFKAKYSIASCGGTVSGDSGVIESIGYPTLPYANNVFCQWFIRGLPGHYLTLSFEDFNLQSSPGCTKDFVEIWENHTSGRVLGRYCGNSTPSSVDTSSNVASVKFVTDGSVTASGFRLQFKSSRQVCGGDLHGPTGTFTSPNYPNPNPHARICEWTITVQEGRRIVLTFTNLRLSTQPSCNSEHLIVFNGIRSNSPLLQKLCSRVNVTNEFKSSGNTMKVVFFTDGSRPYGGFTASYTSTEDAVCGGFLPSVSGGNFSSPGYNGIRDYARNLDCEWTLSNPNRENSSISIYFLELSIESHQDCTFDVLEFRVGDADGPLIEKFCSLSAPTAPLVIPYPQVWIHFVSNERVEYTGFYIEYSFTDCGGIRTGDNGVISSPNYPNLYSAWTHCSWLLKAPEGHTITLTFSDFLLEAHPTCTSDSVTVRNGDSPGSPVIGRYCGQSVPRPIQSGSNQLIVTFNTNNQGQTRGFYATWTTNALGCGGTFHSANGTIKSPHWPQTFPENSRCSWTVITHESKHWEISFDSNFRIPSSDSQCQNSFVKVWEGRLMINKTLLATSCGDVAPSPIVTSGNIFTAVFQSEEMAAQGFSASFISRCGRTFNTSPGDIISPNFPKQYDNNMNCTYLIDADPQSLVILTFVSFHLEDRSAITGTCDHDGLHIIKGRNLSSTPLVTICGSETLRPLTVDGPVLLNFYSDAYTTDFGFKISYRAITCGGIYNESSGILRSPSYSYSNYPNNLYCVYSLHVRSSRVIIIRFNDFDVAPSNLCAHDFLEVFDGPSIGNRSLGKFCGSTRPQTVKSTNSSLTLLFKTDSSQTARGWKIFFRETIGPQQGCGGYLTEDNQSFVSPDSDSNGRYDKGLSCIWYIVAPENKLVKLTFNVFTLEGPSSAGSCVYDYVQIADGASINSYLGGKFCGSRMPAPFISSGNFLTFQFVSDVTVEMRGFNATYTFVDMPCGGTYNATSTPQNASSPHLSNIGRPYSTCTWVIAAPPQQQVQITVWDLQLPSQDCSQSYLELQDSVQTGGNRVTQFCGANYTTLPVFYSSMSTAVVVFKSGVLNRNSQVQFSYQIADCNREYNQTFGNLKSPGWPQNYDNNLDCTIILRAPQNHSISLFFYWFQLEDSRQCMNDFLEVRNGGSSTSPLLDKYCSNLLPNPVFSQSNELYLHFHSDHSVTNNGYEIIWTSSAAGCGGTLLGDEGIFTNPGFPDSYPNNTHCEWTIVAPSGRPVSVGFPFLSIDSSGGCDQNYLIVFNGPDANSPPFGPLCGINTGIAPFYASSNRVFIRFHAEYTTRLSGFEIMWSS

B1: human cystatin C (natural protein, UniProt P01034 27-146, looked up)
chain: SSPGKPPRLVGGPMDASVEEEGVRRALDFAVGEYNKASNDMYHSRALQVVRARKQIVAGVNYFLDVELGRTTCTKTQPNLDNCPFHDQPHLKRKAFCSFQIYAVPWQGTMTLSKSTCQDA
notes: also called cysC
Kd (rat megalin): ~32 nM
Kd (rat cubilin): ~24 nM

From publication PMC5456377, “Megalin dependent urinary cystatin C excretion in ischemic kidney injury in rats” (PLoS ONE, 2017)
